The results in this text go back to patent publication US7041642B1, “Fluorescent bombesin-like peptides” (PerkinElmer LAS, Inc., priority 1995, dated 2006).

One experiment deals with T1, BB1 (NMB receptor) (Homo sapiens, UniProt P28336).
T1 construct: expressed in transfected cells
Put plainly: Radioligand displacement binding, recombinant cells expressing BB1 (NMB receptor). The method, then:
(§1) All experimental results were obtained by displacing radiolabeled bombesin from the designated receptor, except for the results obtained for GRP which used radiolabeled GRP. Other receptors used in binding assays include the NMB receptor, the bombesin-receptor subtype 2 (BB2) and the bombesin receptor subtype 3 (BB3). As mentioned above, the biological activities of fluoresceinyl-NMC as well as fluoresceinyl-GRP compounds were determined in non-selective assay by binding to BB1, BB2 and BB3 expressed by rat brain neurons whereas the biological activities of fluoresceinyl-NMB and [Dphe^6, Ala^11, Phe^13, Nle^14]Bbn(6–14) compounds were determined by using recombinant cells expressing the BB1 (NMB receptor) or BB2 and BB3 receptors respectively.
Determination of IC50 for labeled peptides. […] In order to fully dissolve the peptide, the sample was reconstituted in 20 uL DMSO, vortexing well to ensure that all powder was completely dissolved, and then adding 0.48 mL of double distilled water. The stock solution was aliquoted to avoid repeated freezing and thawing of peptide. Unused aliquots were stored at −20° C. (protected from light) for maximum 24 hr. […]
(§2) Data for native and labeled peptides were analyzed by non-linear curve fitting. […]

The target in a further experiment is BB1, BB2, BB3. The experiment in a line: Non-selective radioligand displacement binding, rat cerebral cortex / brain neurons. The method, then: Referring now to FIG. 4, a fluoresceinyl-NMC peptide with the amino aid sequence […]NH2 (SEQ ID NO:4) was tested to determine its affinity for NMC receptor sites. The fluoresceinyl-NMC peptide compound absorbs light maximally at 494 nm and features an emission spectrum centered around 518 nm. […] The IC50 is related to the binding constant Ki by the formula IC50=Ki (1+FL/Kd), where FL is the concentration of the free labeled ligand and Kd is the dissociation constant for the labeled ligand.
as §1
Determination of IC50 for labeled peptides. […] In order to fully dissolve the peptide, the sample was reconstituted in 20 uL DMSO, vortexing well to ensure that all powder was completely dissolved, and then adding 0.48 mL of double distilled water. The stock solution was aliquoted to avoid repeated freezing and thawing of peptide. Unused aliquots were stored at −20° C. (protected from light) for maximum 24 hr.
Receptor binding was carried out on tissues of rat cortex homogenate for GRP, recombinant cells expressing BB1 (NMB receptor) for NMB, or recombinant cells expressing BB2 and BB3 for [Dphe^6, Ala^11, Phe^13, Nle^14]Bbn(6–14). […]
as §2
Background: Displacement assays read how much labelled ligand stays bound in the presence of the test substance.

The target of experiment [1] is bombesin 3 receptor (BB3 or orphan bombesin receptor), recombinant cells. The experiment in a line: radioligand displacement, recombinant cells expressing BB3.
In experiment [2] the target is bombesin 2 receptor (BB2 or GRP receptor), recombinant cells. Put plainly: radioligand displacement, recombinant cells expressing BB2.
For experiment [3], the target named is BB1, BB2 and BB3 expressed by rat brain neurons. The experiment in a line: displacement of radiolabeled bombesin, rat cerebral cortex.
For experiment [4] the target is unchanged. Put plainly: radioligand displacement (radiolabeled bombesin), rat cerebral cortex, non-selective.
Experiment [5] deals with bombesin 1 receptor (BB1 or NMB receptor), recombinant cells. Put plainly: radioligand displacement, recombinant cells expressing BB1 (NMB receptor).
Experiment [6] has as its target BB1, BB2 and BB3 expressed by rat brain neurons. The experiment in a line: radioligand displacement (radiolabeled GRP), rat cortex homogenate, non-selective.

Ends that are not written are not given here. fluorescein = fluorescein label (light-emitting moiety) attached to the peptide

As usually defined, the Ki is a measure of affinity in units of concentration, obtained from inhibition or displacement.

bombesin 3 receptor (BB3 or orphan bombesin receptor), recombinant cells, sequence (P32247 whole entry): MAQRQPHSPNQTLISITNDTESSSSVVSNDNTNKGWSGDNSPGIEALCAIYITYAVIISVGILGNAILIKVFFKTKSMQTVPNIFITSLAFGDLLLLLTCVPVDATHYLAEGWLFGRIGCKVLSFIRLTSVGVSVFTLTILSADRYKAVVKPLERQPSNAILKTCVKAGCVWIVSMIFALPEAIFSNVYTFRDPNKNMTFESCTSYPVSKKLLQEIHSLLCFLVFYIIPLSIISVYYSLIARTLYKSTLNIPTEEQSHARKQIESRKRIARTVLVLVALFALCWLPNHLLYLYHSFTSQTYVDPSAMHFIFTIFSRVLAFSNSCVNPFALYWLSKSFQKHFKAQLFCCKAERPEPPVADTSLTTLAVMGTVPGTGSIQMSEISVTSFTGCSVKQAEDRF
T1 sequence (P28336 whole entry): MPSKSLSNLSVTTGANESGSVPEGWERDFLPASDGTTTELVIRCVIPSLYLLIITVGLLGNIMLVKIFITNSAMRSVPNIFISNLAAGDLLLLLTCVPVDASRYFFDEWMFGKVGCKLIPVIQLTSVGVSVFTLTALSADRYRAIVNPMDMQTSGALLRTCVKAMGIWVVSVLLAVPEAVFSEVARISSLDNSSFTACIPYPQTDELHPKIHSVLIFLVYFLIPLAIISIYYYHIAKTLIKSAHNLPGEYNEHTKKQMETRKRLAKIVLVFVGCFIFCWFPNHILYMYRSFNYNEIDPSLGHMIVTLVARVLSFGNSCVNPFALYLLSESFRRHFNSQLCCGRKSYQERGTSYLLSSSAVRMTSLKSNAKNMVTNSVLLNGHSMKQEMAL

Take `CSCC[C@H](NC(=O)[C@H](Cc1ccccc1)NC(=O)[C@H](Cc1cnc[nH]1)NC(=O)CNC(=O)[C@@H](NC(=O)[C@H](C)NC(=O)[C@H](Cc1c[nH]c2ccccc12)NC(=O)[C@H](CC(C)C)NC(=O)[C@H](CC(N)=O)NC(=O)CN)[C@@H](C)O)C(N)=O` [NMB]: the Ki at BB1 (NMB receptor) is 0.1 nM.

VPLPAGGGTVLTKMYPRGNHWAVGHLM [GRP]: affinity on BB1, BB2, BB3 (displacement of radiolabeled GRP, BB1, BB2, BB3, rat cortex homogenate) was put at a Ki of 2 nM. With “[Dphe^6, Ala^11, Phe^13, Nle^14]Bbn(6-14) (peptide)”, the inhibition constant Ki in experiment [1] is 23 nM; in experiment [2], 0.17 nM. At BB1, BB2, BB3 (displacement of radiolabeled bombesin, BB1, BB2, BB3 of rat brain neurons), “fluoresceinyl-NMC peptide, sequence Gly-Asn-His-Trp-Ala-Val-Gly-His-Leu-Met-NH2 (SEQ ID NO:4), fluorescein at N-terminus (fluorescein-GNHWAVGHLM-NH2; listed as Sus scrofa) [Fluo*-NMC]” yielded a Ki of 3.2 nM. The IC50 on BB1, BB2, BB3 (read-out: IC50 (concentration at which 50% of the binding is inhibited), displacement of radiolabeled bombesin, receptors on rat cerebral cortex neurons) amounted to 3.2 nM. “fluoresceinyl-[Dphe^6, Ala^11, Phe^13, Nle^14]Bbn(6-14) (peptide)”: the figures for the inhibitory constant (Ki) in experiment [1] and in experiment [2] were 86 nM and 0.26 nM, respectively. {fluorescein (carboxylic form)}-GNHWAVGHLM-NH2 [fluoresceinyl-NMC peptide] returned an IC50 in experiment [3] of 3.2 nM. In experiment [4], this molecule came in with a Ki of 3.2 nM.

Take {fluorescein (carboxylic form)}-GNLWATGHFM-NH2 [fluoresceinyl-NMB]: in experiment [5], the inhibitory constant (Ki) amounted to 7 nM.

As for {fluorescein (carboxylic form)}-VPLPAGGGTVLTKMYPRGNHWAVGHLM-NH2 [fluoresceinyl-GRP], in experiment [6], the inhibition constant Ki turned out to be 32 nM.

VPLPAGGGTVLTKMYPRGNHWAVGHLM-NH2 [GRP] displayed an inhibition constant Ki in experiment [6] of 2 nM.

Take GNLWATGHFM-NH2 [NMB]: the inhibition constant (Ki) in experiment [5] turned out to be 0.1 nM.
